According to patent US20160257732A1 (published 2016):
Values joined by “and” are separate entries in the source; they are usually repeats but may differ in a detail not shown here. Equal values may be shown once. Read-outs that look alike come from different tables or passages of the source.

What was measured:
Assay in all cases: cell-based or functional assay
[1] = target: HA of swine-origin A/Minnesota/11/2010 H3N2 virus (influenza A virus)
[2] = target: HA of A/Kawasaki/9/86 (H1N1) (influenza A virus)
[3] = target: HA of ca A/swine/Missouri/06 (H2N3) (influenza A virus)
[4] = target: HA of A/New Jersey/8/76 (H1N1) (influenza A virus)
[5] = target: HA of A/Fort Monmouth/1/47 (H1N1) (influenza A virus)
[6] = target: HA of ca A/Vietnam/1203/04 (H5N1) (influenza A virus)
[7] = target: HA of A/Hong Kong/8/68 (H3N2) (influenza A virus)
[8] = target: HA of ca A/Sydney/5/97 (H3N2) (influenza A virus)
[9] = target: HA of ca A/Netherlands/219/03 (H7N7) (influenza A virus)
[10] = target: HA of ca A/New Caledonia/20/99 (H1N1) (influenza A virus)
[11] = target: HA of A/Victoria/361/11 (H3N2) (influenza A virus)
[12] = target: HA of ca A/teal/Hong Kong/W312/97 (H6N1) (influenza A virus)
[13] = target: T1, HA of ca A/chicken/Hong Kong/G9/97 (H9N2) (influenza A virus)
[14] = target: HA of ca A/Hong Kong/213/03 (H5N1) (influenza A virus)
[15] = target: HA of A/Wisconsin/67/05 (H3N2) (influenza A virus)
[16] = target: HA of A/Victoria/3/75 (H3N2) (influenza A virus)
[17] = target: HA of ca A/Panama/2007/99 (H3N2) (influenza A virus)
[18] = target: T2, HA of ca A/Brit. Columbia/CN-6/04 (H7N3-LP) (influenza A virus)
[19] = target: HA of ca A/Japan/57 (H2N2) (influenza A virus)
[20] = target: HA of ca A/Perth/16/09 (H3N2) (influenza A virus)
HA of virus H1-BS10 = target: HA of virus H1-BS10
[21] = target: HA of ca A/mallard/Alberta/89/85 (H6N2) (influenza A virus)
[22] = target: HA of ca A/Texas/36/91 (H1N1) (influenza A virus)
[23] = target: HA of ca A/Beijing/262/95 (H1N1) (influenza A virus)
[24] = target: HA of A/Kawasaki/9/86 (H1N1) (influenza A virus); remark: listed apart in the source
[25] = target: HA of ca A/swine/Missouri/06 (H2N3) (influenza A virus); remark: listed apart in the source
[26] = target: HA of A/New Jersey/8/76 (H1N1) (influenza A virus); remark: listed apart in the source
[27] = target: HA of A/Fort Monmouth/1/47 (H1N1) (influenza A virus); remark: listed apart in the source
[28] = target: HA of ca A/Vietnam/1203/04 (H5N1) (influenza A virus); remark: listed apart in the source
[29] = target: HA of A/Hong Kong/8/68 (H3N2) (influenza A virus); remark: listed apart in the source
[30] = target: HA of ca A/Sydney/5/97 (H3N2) (influenza A virus); remark: listed apart in the source
[31] = target: HA of ca A/Netherlands/219/03 (H7N7) (influenza A virus); remark: listed apart in the source
[32] = target: HA of ca A/New Caledonia/20/99 (H1N1) (influenza A virus); remark: listed apart in the source
[33] = target: HA of A/Wyoming/03/03 (H3N2) (influenza A virus)
[34] = target: HA of ca A/teal/Hong Kong/W312/97 (H6N1) (influenza A virus); remark: listed apart in the source
[35] = target: T1, HA of ca A/chicken/Hong Kong/G9/97 …; remark: listed apart in the source
[36] = target: HA of ca A/Hong Kong/213/03 (H5N1) (influenza A virus); remark: listed apart in the source
[37] = target: HA of A/Wisconsin/67/05 (H3N2) (influenza A virus); remark: listed apart in the source
[38] = target: HA of A/Victoria/3/75 (H3N2) (influenza A virus); remark: listed apart in the source
[39] = target: HA of ca A/Panama/2007/99 (H3N2) (influenza A virus); remark: listed apart in the source
[40] = target: T2, HA of ca A/Brit. Columbia/CN-6/04 …; remark: listed apart in the source
[41] = target: HA of ca A/Perth/16/09 (H3N2) (influenza A virus); remark: listed apart in the source
[42] = target: HA of ca A/Texas/36/91 (H1N1) (influenza A virus); remark: listed apart in the source
[43] = target: HA of ca A/Beijing/262/95 (H1N1) (influenza A virus); remark: listed apart in the source

B1: Antibody 13 (antibody, V domains shown)
VH: QVQLQQSGPGLVKPSQTLSLTCAISGDSVSSYNAVWNWIRQSPSRGLEWLGRTYYRSGWYNDYAESVKSRITINPDTSKNQFSLQLNSVTPEDTAVYYCARSGHITVFGVNVDAFDMWGQGTMVTVSS
VL: DIQMTQSPSSLSASVGDRVTITCRTSQSLSSYDHWYQQKPGKAPKLLIYAASSRLSGVPSRFSGSGSGTDFTLTISSLQPEDFATYYCQQSRTFGQGTKVEIK
How did the “Neutralizing activity IC50, swine-origin A/Minnesota/11/2010” value [1] turn out when B1 was run?
The value was 1.6 µg/mL and 1.4 µg/mL.

What about the “Neutralization IC50, H1-Kaw86” value [2] of the same binder?
Its value is 0.41 µg/mL.

What about the “Neutralization IC50, H2-MO06” value [3] of the same binder?
Its value is 0.57 µg/mL.

And the “Neutralization IC50, H1-NJ76” value [4]?
Its value is 0.12 µg/mL.

And the “Neutralization IC50, H1-FM47” value [5]?
The value was 0.5 µg/mL.

And the “Neutralization IC50, H5-VM04” value [6]?
The value was 0.56 µg/mL.

What about the “Neutralization IC50, H3-HK68” value [7] of the same binder?
The value was 0.44 µg/mL.

What about the “Neutralization IC50, H3-Syd97” value [8] of the same binder?
Its value is 2.18 µg/mL.

What about the “Neutralization IC50, H7-NLD03” value [9] of the same binder?
The value was 2.45 µg/mL.

And the “Neutralization IC50, H1-Ncal99” value [10]?
The value was 0.77 µg/mL.

What about the “Neutralization IC50, H3-VC11” value [11] of the same binder?
Its value is 1.03 µg/mL.

And the “Neutralization IC50, H6-HK97” value [12]?
Its value is 0.55 µg/mL.

And the “Neutralization IC50, H9-HK97” value [13]?
Its value is 0.29 µg/mL.

What about the “Neutralization IC50, H5-HK03” value [14] of the same binder?
Its value is 0.17 µg/mL.

What about the “Neutralization IC50, H3-WI05” value [15] of the same binder?
Its value is 1.19 µg/mL.

And the “Neutralization IC50, H3-Vic75” value [16]?
The value was 0.43 µg/mL.

What about the “Neutralization IC50, H3-Pa99” value [17] of the same binder?
Its value is 2.62 µg/mL.

What about the “Neutralization IC50, H7-BC04” value [18] of the same binder?
The value was 0.96 µg/mL.

And the “Neutralization IC50, H2-JP57” value [19]?
The value was 0.47 µg/mL.

And the “Neutralization IC50, H3-Perth09” value [20]?
Its value is 0.28 µg/mL.

What about the “Neutralization IC50, H1-BS10” value (HA of virus H1-BS10) of the same binder?
The value was 1.23 µg/mL.

What about the “Neutralization IC50, H6-AB85” value [21] of the same binder?
The value was 0.29 µg/mL.

And the “Neutralization IC50, H1-TX91” value [22]?
Its value is 0.09 µg/mL.

What about the “Neutralization IC50, H1-BJ95” value [23] of the same binder?
Its value is 1.86 µg/mL.

B2: Antibody 15 (antibody, V domains shown)
VH: QVQLQQSGPGLVKPSQTLSLTCAISGDSVSSNNAVWNWIRQSPSRGLEWLGRTYYRSKWYNDYAESVKSRITINPDTSKNQFSLQLNSVTPEDTAVYYCARSGHITVFGVNVDAFDMWGQGTTVTVSS
VL: DIQMTQSPSSLSASVGDRVTITCRTSQSLSSYTHWYQQKPGKAPKLLIYAASSRGSGVPSRFSGSGSGTDFTLTISSLQPEDFATYYCQQSRTFGQGTKVEIK
How did the “Neutralizing activity IC50, swine-origin A/Minnesota/11/2010” value [1] turn out when B2 was run?
Its value is 0.9 µg/mL and 2.7 µg/mL.

And the “Neutralization IC50, H1-Kaw86” value [2]?
Its value is 0.48 µg/mL.

And the “Neutralization IC50, H2-MO06” value [3]?
The value was 0.83 µg/mL.

And the “Neutralization IC50, H1-NJ76” value [4]?
Its value is 0.25 µg/mL.

What about the “Neutralization IC50, H1-FM47” value [5] of the same binder?
The value was 0.35 µg/mL.

And the “Neutralization IC50, H5-VM04” value [6]?
The value was 0.28 µg/mL.

And the “Neutralization IC50, H3-HK68” value [7]?
The value was 0.5 µg/mL.

What about the “Neutralization IC50, H3-Syd97” value [8] of the same binder?
Its value is 1.79 µg/mL.

And the “Neutralization IC50, H7-NLD03” value [9]?
The value was 1.3 µg/mL.

And the “Neutralization IC50, H1-Ncal99” value [10]?
Its value is 0.79 µg/mL.

What about the “Neutralization IC50, H3-VC11” value [11] of the same binder?
Its value is 1.29 µg/mL.

And the “Neutralization IC50, H6-HK97” value [12]?
Its value is 0.33 µg/mL.

And the “Neutralization IC50, H9-HK97” value [13]?
Its value is 0.35 µg/mL.

What about the “Neutralization IC50, H5-HK03” value [14] of the same binder?
Its value is 0.05 µg/mL.

What about the “Neutralization IC50, H3-WI05” value [15] of the same binder?
Its value is 1.3 µg/mL.

And the “Neutralization IC50, H3-Vic75” value [16]?
The value was 0.35 µg/mL.

And the “Neutralization IC50, H3-Pa99” value [17]?
The value was 3.39 µg/mL.

What about the “Neutralization IC50, H7-BC04” value [18] of the same binder?
Its value is 1.25 µg/mL.

What about the “Neutralization IC50, H2-JP57” value [19] of the same binder?
Its value is 0.33 µg/mL.

What about the “Neutralization IC50, H3-Perth09” value [20] of the same binder?
Its value is 0.5 µg/mL.

What about the “Neutralization IC50, H1-BS10” value (HA of virus H1-BS10) of the same binder?
The value was 1.89 µg/mL.

What about the “Neutralization IC50, H6-AB85” value [21] of the same binder?
Its value is 0.19 µg/mL.

What about the “Neutralization IC50, H1-TX91” value [22] of the same binder?
The value was 0.13 µg/mL.

And the “Neutralization IC50, H1-BJ95” value [23]?
Its value is 1.81 µg/mL.

B3: Antibody 5 (antibody, V domains shown)
VH: QVQLQQSGPGLVKPSQTLSLTCAISGDRVSSNSAVWNWIRQSPSRGLEWLGRTYYRSKWYYDYAESVKSRIVIDPDTSKNQVSLQLNSVTPEDSAIYYCARGGHITVFGLNIDAYDIWGQGAMVTVSS
VL: DIQMTQSPSSLSASVGDRVTISCRAQSLSSYLHWYQQKPGQPPKLLIYAATTLQSGVPSRFSGSGSGTDFTLTISTFQAEDVATYYCQQSRTFGQGTKVEIK
With B3 as the binder, how does the “Neutralization IC50, H1-Kaw86” value [24] read?
The value was 1.01 µg/mL.

What about the “Neutralization IC50, H2-MO06” value [25] of the same binder?
The value was 2.38 µg/mL.

What about the “Neutralization IC50, H1-NJ76” value [26] of the same binder?
The value was 1.64 µg/mL.

What about the “Neutralization IC50, H1-FM47” value [27] of the same binder?
Its value is 0.86 µg/mL.

What about the “Neutralization IC50, H5-VM04” value [28] of the same binder?
The value was 2.6 µg/mL.

What about the “Neutralization IC50, H3-HK68” value [29] of the same binder?
The value was 0.39 µg/mL.

What about the “Neutralization IC50, H3-Syd97” value [30] of the same binder?
Its value is 3.03 µg/mL.

And the “Neutralization IC50, H7-NLD03” value [31]?
Its value is 4.14 µg/mL.

And the “Neutralization IC50, H1-Ncal99” value [32]?
Its value is 0.85 µg/mL.

What about the “Neutralization IC50, H3-Wy03” value [33] of the same binder?
Its value is 0.77 µg/mL.

What about the “Neutralization IC50, H6-HK97” value [34] of the same binder?
The value was 2.27 µg/mL.

And the “Neutralization IC50, H9-HK97” value [35]?
The value was 2.43 µg/mL.

What about the “Neutralization IC50, H5-HK03” value [36] of the same binder?
The value was 1.18 µg/mL.

And the “Neutralization IC50, H3-WI05” value [37]?
The value was 2.83 µg/mL.

What about the “Neutralization IC50, H3-Vic75” value [38] of the same binder?
The value was 0.57 µg/mL.

What about the “Neutralization IC50, H3-Pa99” value [39] of the same binder?
Its value is 16.7 µg/mL.

And the “Neutralization IC50, H7-BC04” value [40]?
The value was 5.35 µg/mL.

And the “Neutralization IC50, H3-Perth09” value [41]?
Its value is 2.22 µg/mL.

What about the “Neutralization IC50, H1-TX91” value [42] of the same binder?
Its value is 0.76 µg/mL.

And the “Neutralization IC50, H1-BJ95” value [43]?
The value was 5.06 µg/mL.
